According to patent US20260022175A1 (Chugai, published 2026):

Experiments:
[1] = biological target: T1, mCTLA4-His (mouse CTLA4 extracellular region linked with a His-tag) (mouse, UniProt P09793 36-161); assay: SPR 37C, ATP 100 µM
[2] = biological target: T1, mCTLA4-His (mouse CTLA4 extracellular …); assay: SPR 37C, ATP 100 µM; remark: listed apart in the source
[3] = biological target: T1, mCTLA4-His (mouse CTLA4 extracellular …); assay: SPR 37C, ATP 10 µM
[4] = biological target: T2, human FcγRIIa H extracellular domain (human, UniProt P12318 34-217); assay: SPR Biacore 8K+, antibody captured, FcγR as analyte, 1:1 Langmuir model;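 also: antibodies captured on a streptavidin chip through a biotinylated anti-human Fab kappa reagent, with FcγR extracellular domains injected in pH 7.4 phosphate buffer at 25 °C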
T2 construct: extracellular domain; also called hFcγR IIa H
T2 sequence (looked up): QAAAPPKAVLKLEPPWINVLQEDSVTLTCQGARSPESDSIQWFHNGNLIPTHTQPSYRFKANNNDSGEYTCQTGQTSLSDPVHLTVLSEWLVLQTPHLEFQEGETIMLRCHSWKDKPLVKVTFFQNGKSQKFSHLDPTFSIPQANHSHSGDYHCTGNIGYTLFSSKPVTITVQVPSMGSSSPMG

[5] = biological target: T3, human FcγRIIa R extracellular domain (human, UniProt P12318 34-217); assay: as above
T3 construct: extracellular domain; also called hFcγR IIa R
T3 sequence (looked up): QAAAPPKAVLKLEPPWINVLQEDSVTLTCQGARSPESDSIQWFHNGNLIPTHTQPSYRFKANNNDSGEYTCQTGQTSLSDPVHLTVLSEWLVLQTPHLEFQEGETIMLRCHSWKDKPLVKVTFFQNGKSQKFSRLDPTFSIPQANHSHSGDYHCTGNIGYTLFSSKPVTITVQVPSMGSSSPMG

[6] = biological target: T4, human FcγRIa extracellular domain (human, UniProt P12314 16-292); assay: as above
T4 construct: extracellular domain; also called hFcγR Ia; hFcγRIa

[7] = biological target: T5, human FcγRIIIa F extracellular domain (human, UniProt P08637 17-208); assay: SPR Biacore 8K+; KD for FcγRIIb divided by KD for this FcγR;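 also: antibodies captured on an anti-human Fab kappa SA chip with soluble human FcγR ectodomains flowed over, FcγRIIb KD from steady-state fit, other FcγR KD from Langmuir model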
T5 construct: extracellular domain; also called hFcγR IIIa F

[8] = biological target: T2, human FcγRIIa H extracellular domain; assay: as above
[9] = biological target: T3, human FcγRIIa R extracellular domain; assay: as above
[10] = biological target: T6, human FcγRIIIa V extracellular domain (human, UniProt P08637 17-208); assay: as above
T6 construct: extracellular domain; also called hFcγR IIIa V

[11] = biological target: hFcγRIIIaV on hFcγRIIIaV-expressing Jurkat cells (human, UniProt P08637 17-254); assay: cell-based or functional assay
[12] = biological target: T7, human FcγRIIb extracellular domain (human, UniProt P31994 43-217); assay: SPR Biacore 8K+, antibody captured, FcγR as analyte, steady state affinity model
T7 construct: extracellular domain; also called hFcγR IIb
T7 sequence (looked up): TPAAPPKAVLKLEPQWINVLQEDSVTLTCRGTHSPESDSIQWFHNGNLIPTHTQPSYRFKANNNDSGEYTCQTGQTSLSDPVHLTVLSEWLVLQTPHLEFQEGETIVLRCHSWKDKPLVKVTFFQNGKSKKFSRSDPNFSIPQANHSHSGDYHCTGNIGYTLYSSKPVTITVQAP

[13] = biological target: T8, hFcγRIIaH on hFcγRIIaH-expressing Jurkat cells (human, UniProt P12318 34-317); assay: cell-based or functional assay
T8 sequence (looked up): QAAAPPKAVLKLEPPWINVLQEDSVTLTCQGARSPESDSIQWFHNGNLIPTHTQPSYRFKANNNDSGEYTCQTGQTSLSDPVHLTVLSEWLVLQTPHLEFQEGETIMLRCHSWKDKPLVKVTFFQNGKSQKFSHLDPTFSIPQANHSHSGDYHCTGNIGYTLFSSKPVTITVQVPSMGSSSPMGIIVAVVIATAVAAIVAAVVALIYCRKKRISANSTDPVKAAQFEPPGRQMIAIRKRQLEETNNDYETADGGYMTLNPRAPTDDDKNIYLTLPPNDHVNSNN

[14] = biological target: T5, human FcγRIIIa F extracellular domain; assay: SPR Biacore 8K+, antibody captured, FcγR as analyte, 1:1 Langmuir model; hFcγR IIIa F allotype
[15] = biological target: T7, human FcγRIIb extracellular domain; assay: SPR Biacore 8K+; KD of G1d divided by KD of this antibody;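 also: antibodies captured on an anti-Fab-kappa streptavidin chip, soluble FcγR ectodomains flowed over, KD by steady-state fit for FcγRIIb and Langmuir kinetic model for the other receptors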
[16] = biological target: T5, human FcγRIIIa F extracellular domain; assay: as above
[17] = biological target: T2, human FcγRIIa H extracellular domain; assay: as above
[18] = biological target: T3, human FcγRIIa R extracellular domain; assay: as above
[19] = biological target: T6, human FcγRIIIa V extracellular domain; assay: as above
[20] = biological target: T4, human FcγRIa extracellular domain; assay: as above
[21] = biological target: T6, human FcγRIIIa V extracellular domain; assay: SPR Biacore 8K+, antibody captured, FcγR as analyte, 1:1 Langmuir model; hFcγR IIIa V allotype
human CTLA4 [22] = biological target: T9, human CTLA4 (human); assay: SPR, 37C, antibody captured by anti-mouse IgG, ATP 10 uM
T9 construct: also called hCTLA4; hCTLA4-His-BAP

human CTLA4 [23] = biological target: T9, human CTLA4; assay: SPR, 37C, antibody captured by anti-mouse IgG, ATP 100 uM
human CTLA4 [24] = biological target: T9, human CTLA4; assay: SPR, 37C, antibody captured by anti-mouse IgG, ATP 1 uM

T5 sequence (P08637 17-208): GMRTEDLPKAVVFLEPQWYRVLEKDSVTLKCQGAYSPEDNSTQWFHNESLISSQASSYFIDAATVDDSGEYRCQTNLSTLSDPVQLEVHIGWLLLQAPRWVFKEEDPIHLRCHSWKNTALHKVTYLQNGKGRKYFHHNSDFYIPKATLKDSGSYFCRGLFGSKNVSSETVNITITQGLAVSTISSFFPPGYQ
T6 sequence (P08637 17-208 F176V limits assumed): as the sequence (P08637 17-208) above, with F160V counted along it
T9 sequence (chain, as listed by the source limits assumed): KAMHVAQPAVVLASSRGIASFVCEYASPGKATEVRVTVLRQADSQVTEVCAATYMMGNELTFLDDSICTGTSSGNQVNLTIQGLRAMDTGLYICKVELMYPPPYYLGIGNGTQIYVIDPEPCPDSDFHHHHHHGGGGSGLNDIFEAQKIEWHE
T4 sequence (P12314 16-292): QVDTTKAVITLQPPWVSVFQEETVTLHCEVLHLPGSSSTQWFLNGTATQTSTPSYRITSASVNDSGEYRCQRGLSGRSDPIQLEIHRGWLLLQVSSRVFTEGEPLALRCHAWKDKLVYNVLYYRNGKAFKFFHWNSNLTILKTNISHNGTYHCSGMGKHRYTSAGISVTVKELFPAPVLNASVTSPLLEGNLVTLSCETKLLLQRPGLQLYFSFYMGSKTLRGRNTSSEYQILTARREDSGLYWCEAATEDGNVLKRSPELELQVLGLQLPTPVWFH
Sequence of hFcγRIIIaV on hFcγRIIIaV-expressing Jurkat cells (P08637 17-254, form in doubt): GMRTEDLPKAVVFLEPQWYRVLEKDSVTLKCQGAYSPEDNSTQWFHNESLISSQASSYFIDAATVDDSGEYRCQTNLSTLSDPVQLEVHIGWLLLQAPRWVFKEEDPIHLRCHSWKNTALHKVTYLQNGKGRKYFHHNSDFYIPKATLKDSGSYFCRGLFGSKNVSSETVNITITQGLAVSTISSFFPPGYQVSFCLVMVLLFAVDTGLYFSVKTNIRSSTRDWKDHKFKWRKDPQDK

B1: 04H1208-G1m/04L1407-k0MT (antibody, human IgG1, kappa, V domains shown)
VH: EVQLVESGGGLVKPGGSLRLSCAASGFTFSSKTMNWVRQAPGKGLEWVSSISTRSGYIYYARSVKGRFTISRDNAKNSLYLQMNSLRAEDTAVYYCARYGKREDMLWVFDYWGQGTLVTVSS
VL: DIVMTQSPLSLPVTPGEPASISCDGPSTDVGDYNWVHWYQQKPGQAPRLLIYYTSSKPEGVPDRFSGSGSGTDFTLKISRVEAEDVGVYYCQTYAAPLGPTFGQGTKLEIKR
- Kd [1]: 16 nM
- fold weaker than its binding ability to human CTLA4 [2]: ~2 times
- Kd [3]: 84 nM

B2: H240-Kn037/L73-k0//H240-Hl036/L73-k0 (antibody, human IgG1, kappa)
heavy 1: QDQLVQSGAEVKKPGASVKVSCKASGFNIKDTYIQWVRQAPGQGLEWMGRIDPLRKQTKYREKFEGRVTITADTSTNTAYMELSSLRSEDTAVYYCVRSGREFDYWGQGTLVTVSSASTKGPSVFPLAPSSKSTSGGTAALGCLVKDYFPEPVTVSWNSGALTSGVHTFPAVLQSSGLYSLSSVVTVPSSSLGTQTYICNVNHKPSNTKVDKKVEPKSCDKTHTCPPCPAPELLAGPDVFLFPPKPKDTLMISRTPEVTCVVVDVSHEDPEVKFNWYVDGVEVHNAKTKPREEQYNSTYRVVSVLTVLHQDWLNGKEYKCKVSNKALPAPEEKTISKAKGQPREPQVCTLPPSRDELTKNQVSLWCLVKGFYPSDIAVEWESNGQPENNYKTTPPVLDSDGSFFLYSKLTVDKSRWQQGNVFSCSVMHEALHNHYTQKSLSLSP
heavy 2: QDQLVQSGAEVKKPGASVKVSCKASGFNIKDTYIQWVRQAPGQGLEWMGRIDPLRKQTKYREKFEGRVTITADTSTNTAYMELSSLRSEDTAVYYCVRSGREFDYWGQGTLVTVSSASTKGPSVFPLAPSSKSTSGGTAALGCLVKDYFPEPVTVSWNSGALTSGVHTFPAVLQSSGLYSLSSVVTVPSSSLGTQTYICNVNHKPSNTKVDKKVEPKSCDKTHTCPPCPAPELLAGPDVFLFPPKPKDTLMISRTPEVTCVVVDVSHEDPEVKFNWYVDGVEVHNAKTKPREEQYNSTYRVVSVLTVLHQDWLNGKEYKCKVSNKALPAPEEKTISKAKGQPREPQVYTLPPSRCELTKNQVSLSCAVKGFYPSDIAVEWESNGQPENNYKTTPPVLDSDGSFFLVSKLTVDKSRWQQGNVFSCSVMHEALHNHYTQKSLSLSP
light: DIQMTQSPSSLSASVGDRVTITCRASQDIHKYIAWYQQKPGQAPRLLIQYTSTLQPGVPSRFSGSGSGTDYTFTISSLQPEDIATYYCLQYEQLRTFGGGTKVEIKRTVAAPSVFIFPPSDEQLKSGTASVVCLLNNFYPREAKVQWKVDNALQSGNSQESVTEQDSKDSTYSLSSTLTLSKADYEKHKVYACEVTHQGLSSPVTKSFNRGEC
notes: also called EGL-GASDIE; GASDIE
- Kd [4]: 68.6 nM
- Kd [5]: 67 nM
- Kd [6]: 0.0145 nM
- A/I ratio (KD for FcγRIIb divided by KD for each FcγR) [7]: 18.9
- A/I ratio (KD for FcγRIIb divided by KD for each FcγR) [8]: 18.2
- A/I ratio (KD for FcγRIIb divided by KD for each FcγR) [9]: 18.6
- A/I ratio (KD for FcγRIIb divided by KD for each FcγR) [10]: 52.6
- EC50 value (hFcγRIIIaV ADCC Reporter Bioassay, Hepa1-6/hEREG target cells) [11]: 3.7 ng/mL
- Kd [12]: 1250 nM
- EC50 value (hFcγRIIaH ADCP Reporter Bioassay, Hepa1-6/hEREG target cells) [13]: 14.9 ng/mL
- Kd [14]: 66.1 nM
- Relative value to KD between G1d and hFcgRs [15]: 8
- Relative value to KD between G1d and hFcgRs [16]: 44.7
- Relative value to KD between G1d and hFcgRs [17]: 16.4
- Relative value to KD between G1d and hFcgRs [18]: 24.7
- Relative value to KD between G1d and hFcgRs [19]: 15.1
- Relative value to KD between G1d and hFcgRs [20]: 6.2
- Kd [21]: 23.8 nM

B3: 04H1389-mFa55/04L1305-mk1 (antibody, mouse IgG2a, kappa)
heavy: EVQLVESGGGLVKPGGSLRLSCAASGFTFSSKTMNWVRQAPGKGLEWVSSISTQSHYIYYAESVKGRFTISRDNAKNSLYLQMNSLRAEDTAVYYCARYGKREDMLWVFDYWGQGTLVTVSSAKTTAPSVYPLAPVCGDTTGSSVTLGCLVKGYFPEPVTLTWNSGSLSSGVHTFPAVLQSDLYTLSSSVTVTSSTWPSQSITCNVAHPASSTKVDKKIEPRGPTIKPCPPCKCPAPNLLGGPDVFIFPPKIKDVLMISLSPIVTCVVVDVSEDDPDVQISWFVNNVEVHTAQTQTHREDYNSTLRVVSALPIQHQDWMSGKEFKCKVNNKDLPAPIERTISKPKGSVRAPQVYVLPPPEEEMTKKQVTLTCMVTDFMPEDIYVEWTNNGKTELNYKNTEPVLDSDGSYFMYSKLRVEKKNWVERNSYSCSVVHEGLHNHHTTKSFSRTPGK
light: DIVMTQSPLSLPVTPGEPASISCDGPSTGVGDYNYVHWYQQKPGQAPRLLIYFTSKKPSGVPDRFSGSGSGTDFTLKISRVEAEDVGVYYCQTYAAPLGPMFGQGTKLEIKRADAAPTVSIFPPSSEQLTSGGASVVCFLNNFYPKDINVKWKIDGSERQNGVLNSWTDQDSKDSTYSMSSTLTLTKDEYERHNSYTCEATHKTSTSPIVKSFNRNEC
notes: Mouse constant regions mFa55 and mk1; also called SW1389-mFa55
- Kd (human CTLA4 [22]): 18 nM
- Kd (human CTLA4 [23]): 8.9 nM
- Kd (human CTLA4 [24]): 51 nM
